Assay results published in patent US20190177414A1.

Tests used:
[1] = molecular target: CTLA4-mFc fusion protein (human); test: competitive ELISA; competitor B7-1-hFc coated 1 ug/ml; CTLA4-mFc 0.3 ug/ml; antibody dilution 1:243 from 3 ug/ml; replicate 2
[2] = molecular target: CTLA4-mFc fusion protein (human); test: competitive ELISA; competitor B7-1-hFc coated 1 ug/ml; CTLA4-mFc 0.3 ug/ml; antibody 0 (no antibody); replicate 2
[3] = molecular target: CTLA4-mFc fusion protein (human); test: competitive ELISA; competitor B7-1-hFc coated 1 ug/ml; CTLA4-mFc 0.3 ug/ml; antibody dilution 1:27 from 3 ug/ml; replicate 2
[4] = molecular target: CTLA4-mFc fusion protein (human); test: competitive ELISA; competitor B7-1-hFc coated 1 ug/ml; CTLA4-mFc 0.3 ug/ml; antibody dilution 1:3 from 3 ug/ml; replicate 1
[5] = molecular target: CTLA4-mFc fusion protein (human); test: competitive ELISA; competitor B7-1-hFc coated 1 ug/ml; CTLA4-mFc 0.3 ug/ml; antibody dilution 1:81 from 3 ug/ml; replicate 1
[6] = molecular target: CTLA4-mFc fusion protein (human); test: competitive ELISA; competitor B7-1-hFc coated 1 ug/ml; CTLA4-mFc 0.3 ug/ml; antibody dilution 1:9 from 3 ug/ml; replicate 1
[7] = molecular target: CTLA4-mFc fusion protein (human); test: competitive ELISA; competitor B7-1-hFc coated 1 ug/ml; CTLA4-mFc 0.3 ug/ml; antibody dilution 1:81 from 3 ug/ml; replicate 2
[8] = molecular target: CTLA4-mFc fusion protein (human); test: competitive ELISA; competitor B7-1-hFc coated 1 ug/ml; CTLA4-mFc 0.3 ug/ml; antibody 3 ug/ml; replicate 2
[9] = molecular target: CTLA4-mFc fusion protein (human); test: competitive ELISA; competitor B7-1-hFc coated 1 ug/ml; CTLA4-mFc 0.3 ug/ml; antibody dilution 1:729 from 3 ug/ml; replicate 1
[10] = molecular target: CTLA4-mFc fusion protein (human); test: competitive ELISA; competitor B7-1-hFc coated 1 ug/ml; CTLA4-mFc 0.3 ug/ml
[11] = molecular target: CTLA4-mFc fusion protein (human); test: competitive ELISA; competitor B7-1-hFc coated 1 ug/ml; CTLA4-mFc 0.3 ug/ml; antibody 0 (no antibody); replicate 1
[12] = molecular target: CTLA4-mFc fusion protein (human); test: competitive ELISA; competitor B7-1-hFc coated 1 ug/ml; CTLA4-mFc 0.3 ug/ml; antibody 3 ug/ml; replicate 1
[13] = molecular target: CTLA4-mFc fusion protein (human); test: competitive ELISA; competitor B7-1-hFc coated 1 ug/ml; CTLA4-mFc 0.3 ug/ml; antibody dilution 1:3 from 3 ug/ml; replicate 2
[14] = molecular target: CTLA4-mFc fusion protein (human); test: competitive ELISA; competitor B7-1-hFc coated 1 ug/ml; CTLA4-mFc 0.3 ug/ml; antibody dilution 1:9 from 3 ug/ml; replicate 2
[15] = molecular target: CTLA4-mFc fusion protein (human); test: competitive ELISA; competitor B7-1-hFc coated 1 ug/ml; CTLA4-mFc 0.3 ug/ml; antibody dilution 1:729 from 3 ug/ml; replicate 2
[16] = molecular target: CTLA4-mFc fusion protein (human); test: competitive ELISA; competitor B7-1-hFc coated 1 ug/ml; CTLA4-mFc 0.3 ug/ml; antibody dilution 1:243 from 3 ug/ml; replicate 1
[17] = molecular target: CTLA4-mFc fusion protein (human); test: competitive ELISA; competitor B7-1-hFc coated 1 ug/ml; CTLA4-mFc 0.3 ug/ml; antibody dilution 1:27 from 3 ug/ml; replicate 1

Sequence of CTLA4-mFc fusion protein (human) (chain, as listed by the source limits assumed): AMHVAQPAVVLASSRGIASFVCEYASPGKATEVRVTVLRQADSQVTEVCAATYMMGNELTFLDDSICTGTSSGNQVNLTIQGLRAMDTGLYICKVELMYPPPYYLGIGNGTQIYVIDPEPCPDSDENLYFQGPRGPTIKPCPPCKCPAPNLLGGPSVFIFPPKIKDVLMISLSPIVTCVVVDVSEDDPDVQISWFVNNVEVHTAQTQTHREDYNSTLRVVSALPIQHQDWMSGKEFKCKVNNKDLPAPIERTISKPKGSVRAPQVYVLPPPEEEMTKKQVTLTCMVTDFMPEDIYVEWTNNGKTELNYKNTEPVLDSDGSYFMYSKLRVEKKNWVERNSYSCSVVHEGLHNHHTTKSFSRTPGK

- absorbance at 450 nm [1]: 0.554
- absorbance at 450 nm [2]: 0.732
- absorbance at 450 nm [3]: 0.365
- absorbance at 450 nm [4]: 0.144
- absorbance at 450 nm [5]: 0.572
- absorbance at 450 nm [6]: 0.351
- absorbance at 450 nm [7]: 0.663
- absorbance at 450 nm [8]: 0.14
- absorbance at 450 nm [9]: 0.726
- EC50 [10]: 1.12 nM
- absorbance at 450 nm [11]: 0.888
- absorbance at 450 nm [12]: 0.147
- absorbance at 450 nm [13]: 0.133
- absorbance at 450 nm [14]: 0.312
- absorbance at 450 nm [15]: 0.692
- absorbance at 450 nm [16]: 0.556
- absorbance at 450 nm [17]: 0.442
Substance: control antibody 10D1 (anti-CTLA4 antibody)
